Assay results taken from article doi:10.1101/619841.

Tests used:
[1] = biological target: cross-linked and fluorescent HIV-1 CA tubes co-assembled from CA A14C/E45C and labelled CA K158C (HIV-1); assay: TIRF microscopy biosensor, equilibrium binding
[2] = biological target: cross-linked and fluorescent HIV-1 CA tubes co-assembled from CA A14C/E45C and labelled CA K158C (HIV-1); assay: TIRF microscopy biosensor

Row | Substance | Kd [1] [µM] | stoichiometry N [1] [CypA per CA] | molar binding ratio (370 nM analyte) (molecules per CA) [2]
1 | cyclophilin A labelled at Cys51 with Alexa Fluor 647 (from UniProt P62937 1-165) (natural protein) | 8 | 0.5 | 
2 | full length CPSF6 fused at its N-terminus to GFP (natural protein) |  |  | 0.2
